The text below walks through data of patent US20260250318A1, “COMPOSITIONS AND METHODS FOR CROSSING THE BLOOD BRAIN BARRIER” (VOYAGER THERAPEUTICS, INC., priority 2022, published 2026).

Assay [1] has as its target T1, human ALPL expressed on cells (alkaline phosphatase tissue-nonspecific isozyme, NM_000478.4) (human, UniProt P05186 18-501).
T1 sequence: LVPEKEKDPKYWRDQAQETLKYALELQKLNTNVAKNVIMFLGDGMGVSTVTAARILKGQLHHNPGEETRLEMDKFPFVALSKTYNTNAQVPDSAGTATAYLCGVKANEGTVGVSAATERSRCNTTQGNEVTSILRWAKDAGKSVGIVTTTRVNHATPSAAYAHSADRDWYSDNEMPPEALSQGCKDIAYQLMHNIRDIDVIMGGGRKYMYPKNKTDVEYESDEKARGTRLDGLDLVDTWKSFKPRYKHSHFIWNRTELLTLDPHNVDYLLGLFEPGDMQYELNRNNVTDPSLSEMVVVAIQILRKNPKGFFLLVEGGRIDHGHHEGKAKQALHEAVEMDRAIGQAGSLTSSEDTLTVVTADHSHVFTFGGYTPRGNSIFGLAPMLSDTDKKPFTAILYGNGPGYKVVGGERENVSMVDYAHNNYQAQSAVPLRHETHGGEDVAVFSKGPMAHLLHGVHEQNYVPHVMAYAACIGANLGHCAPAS
The experiment in a line: cell-based or functional assay.

Assay [2] addresses T1, human ALPL expressed on cells (alkaline …). Briefly: binding/internalization: AAV incubated 2 or 3 h with ALPL transfected HEK 293T cells, washed, viral genomes quantified.

B1: TTM-002 capsid variant (AAV particle comprising the TTM-002 AAV9 capsid variant) (other)
chain 1: MAADGYLPDWLEDNLSEGIREWWALKPGAPQPKANQQHQDNARGLVLPGYKYLGPGNGLDKGEPVNAADAAALEHDKAYDQQLKAGDNPYLKYNHADAEFQERLKEDTSFGGNLGRAVFQAKKRLLEPLGLVEEAAKTAPGKKRPVEQSPQEPDSSAGIGKSGAQPAKKRLNFGQTGDTESVPDPQPIGEPPAAPSGVGSLTMASGGGAPVADNNEGADGVGSSSGNWHCDSQWLGDRVITTSTRTWALPTYNNHLYKQISNSTSGGSSNDNAYFGYSTPWGYFDFNRFHCHFSPRDWQRLINNNWGFRPKRLNFKLFNIQVKEVTDNNGVKTIANNLTSTVQVFTDSDYQLPYVLGSAHEGCLPPFPADVFMIPQYGYLTLNDGSQAVGRSSFYCLEYFPSQMLRTGNNFQFSYEFENVPFHSSYAHSQSLDRLMNPLIDQYLYYLSKTINGHDSPHKSGQNQQTLKFSVAGPSNMAVQGRNYIPGPSYRQQRVSTTVTQNNNSEFAWPGASSWALNGRNSLMNPGPAMASHKEGEDRFFPLSGSLIFGKQGTGRDNVDADKVMITNEEEIKTTNPVATESYGQVATNHQSAQAQAQTGWVQNQGILPGMVWQDRDVYLQGPIWAKIPHTDGNFHPSPLMGGFGMKHPPPQILIKNTPVPADPPTAFNKDKLNSFITQYSTGQVSVEIEWELQKENSKRWNPEIQYTSNYYKSNNVEFAVNTEGVYSEPRPIGTRYLTRNL
chain 2: TAPGKKRPVEQSPQEPDSSAGIGKSGAQPAKKRLNFGQTGDTESVPDPQPIGEPPAAPSGVGSLTMASGGGAPVADNNEGADGVGSSSGNWHCDSQWLGDRVITTSTRTWALPTYNNHLYKQISNSTSGGSSNDNAYFGYSTPWGYFDFNRFHCHFSPRDWQRLINNNWGFRPKRLNFKLFNIQVKEVTDNNGVKTIANNLTSTVQVFTDSDYQLPYVLGSAHEGCLPPFPADVFMIPQYGYLTLNDGSQAVGRSSFYCLEYFPSQMLRTGNNFQFSYEFENVPFHSSYAHSQSLDRLMNPLIDQYLYYLSKTINGHDSPHKSGQNQQTLKFSVAGPSNMAVQGRNYIPGPSYRQQRVSTTVTQNNNSEFAWPGASSWALNGRNSLMNPGPAMASHKEGEDRFFPLSGSLIFGKQGTGRDNVDADKVMITNEEEIKTTNPVATESYGQVATNHQSAQAQAQTGWVQNQGILPGMVWQDRDVYLQGPIWAKIPHTDGNFHPSPLMGGFGMKHPPPQILIKNTPVPADPPTAFNKDKLNSFITQYSTGQVSVEIEWELQKENSKRWNPEIQYTSNYYKSNNVEFAVNTEGVYSEPRPIGTRYLTRNL
chain 3: MASGGGAPVADNNEGADGVGSSSGNWHCDSQWLGDRVITTSTRTWALPTYNNHLYKQISNSTSGGSSNDNAYFGYSTPWGYFDFNRFHCHFSPRDWQRLINNNWGFRPKRLNFKLFNIQVKEVTDNNGVKTIANNLTSTVQVFTDSDYQLPYVLGSAHEGCLPPFPADVFMIPQYGYLTLNDGSQAVGRSSFYCLEYFPSQMLRTGNNFQFSYEFENVPFHSSYAHSQSLDRLMNPLIDQYLYYLSKTINGHDSPHKSGQNQQTLKFSVAGPSNMAVQGRNYIPGPSYRQQRVSTTVTQNNNSEFAWPGASSWALNGRNSLMNPGPAMASHKEGEDRFFPLSGSLIFGKQGTGRDNVDADKVMITNEEEIKTTNPVATESYGQVATNHQSAQAQAQTGWVQNQGILPGMVWQDRDVYLQGPIWAKIPHTDGNFHPSPLMGGFGMKHPPPQILIKNTPVPADPPTAFNKDKLNSFITQYSTGQVSVEIEWELQKENSKRWNPEIQYTSNYYKSNNVEFAVNTEGVYSEPRPIGTRYLTRNL
As to B1, in assay [1], the “transcytosis assay: virus detected in the bottom chamber (percent to the initial virus, qPCR), MDCK ALPL overexpressing cells against MDCK cells that did not express ALPL” value came to 149 fold; the “transcytosis assay: virus detected in the bottom chamber (percent to the initial virus, qPCR), MDCK ALPL overexpressing cells, TTM-002 against AAV9” value worked out at 252 fold; the “transcytosis assay: virus detected in the bottom chamber (percent to the initial virus, qPCR), single MDCK clone expressing ALPL, TTM-002 against AAV9” value came out at 7480 fold. The “fold change in viral gene expression (2^-ΔΔCT) relative to pCMV6 transfected cells” value in assay [2] turned out to be 5.92 fold.
